T1: mouse CLDN18.2 (mouse, UniProt P56857 10-264, Expressed on HEK293T cells as a fusion to GFP. The GFP is left out of the letters.)
T1 construct: also called mouse CLDN18.2 fused to GFP; not shown: The GFP fused to mouse CLDN18.2, and any linker to it
T1 chain: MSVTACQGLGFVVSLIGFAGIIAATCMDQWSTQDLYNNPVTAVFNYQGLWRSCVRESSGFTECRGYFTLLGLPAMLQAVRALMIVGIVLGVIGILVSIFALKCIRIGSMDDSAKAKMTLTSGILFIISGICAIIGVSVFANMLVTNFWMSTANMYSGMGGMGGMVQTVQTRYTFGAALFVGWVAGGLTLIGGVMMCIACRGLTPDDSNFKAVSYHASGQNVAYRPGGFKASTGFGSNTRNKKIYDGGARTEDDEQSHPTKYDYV

B1: 02-0358-6h antibody (antibody, V domains shown)
VH: EVQLVESGGGLVQPGGSLRLSCAVSGFTFSSFGMHWVRQAPGKGLEWVAYISSGTTNIYYADSVKGRFTVSRDNAKNSLYLQMNSLRAEDTAVYYCVRSGYYGQSLDYWGQGTLVTVSS
VL: DIVMTQSPDSLAVSLGERVTMNCKSSQSLFNSGNQRNYLTWYQQKPGQPPKLLIYWASTRESGVPDRFSGSGSGTDFTLTISSVQAEDVAVYYCQNVYIYPLTFGQGTKLEIK
B2: 02-0358-11h antibody (antibody, V domains shown)
VH: B1 VH with Q104S
VL: B1 VL with N31S
B3: 02-0358-9h antibody (antibody, V domains shown)
VH: B1 VH
VL: B1 VL with N31S
B4: 02-0358-10h antibody (antibody, V domains shown)
VH: B1 VH with Q104S
VL: B1 VL with N31Q
B5: 02-0358-8h antibody (antibody, V domains shown)
VH: B1 VH
VL: B1 VL with N31Q
B6: 02-0358-7h antibody (antibody, V domains shown)
VH: B1 VH with Q104S
VL: B1 VL
B7: Ab 376 (antibody, V domains shown)
VH: DVKLVESGGGLVKPGGSLKLSCAASGFTFSSYTMSWVRQTPEKRLYWVATISSGVSYTYYPDSVKGRFTISRDNAKNTLYLQMSSLKSEDTAMYYCTRLTKGNAMDYWGQGTSVTVSS
VL: DIVMTQSPSSLTVTAGEKVTMSCKSSQSLLNSGNQKNYLTWYQQKPGQPPKLLIYWASTRESGVPDRFTGSGSGTGFTLTISSVQAEDLAVYYCQNDYSYPFTFGAGTKLELK
B8: Ab 392 (antibody, V domains shown)
VH: EVQLQQSGPELVKPGASVKMSCKASGFTFTSYVMHWVKQKSGQGLEWIGYINPYNDDIKYNAKFEDKATLTSDRSSSTAYMELSSLTSDDSAVYFCTRGDYWGQGTTLTVSS
VL: B7 VL with A15T, S22D, P46S, T59I, E61K, G76D, Q95L, Y100F, F102L
B9: Reference antibody 2 (Benchmark 2-163E12) (antibody, V domains shown)
VH: QVQLQQSGAELARPGASVKLSCKASGYTFTDYYINWVKQRTGQGLEWIGEIYPGSGNTYYNEKFKGKATLTADKSSSTAYMQLSSLTSEDSAVYFCARSYGAFDYWGQGTTLTVSS
VL: B7 VL with G76D, F102L
B10: Ab 384 (antibody, V domains shown)
VH: QVQLQQSGAELARPGASVKLSCKASDYTFTSYVISWVKQRTGQGLEWIGEIYPRNGNTYYNEKFKGKATLTADKSSSTAYMELRSLTSEDSAVYFCARSYYGNSFAYWGQGTLVTVSA
VL: B7 VL with K45R, G76D, Y93C, D97N, S99Y, A106G, E111G, L112I
B11: Ab 400 (antibody, V domains shown)
VH: QVQLKESGPGLVAPSQSLSITCTVSGFSLNSYGVSWVRQPPGKGLEWLGVIWGDGSTNYHSALKSRLNINKDKSKSQVFLKLNSLQTDDTATYYCARPTRGNAMDYWGQGTSVTVSS
VL: DVVMTQSPSSLTVTAGEKVTMNCKSSQSLLNSGNQRSYLTWYQQKPGQPPKLLIYWASTRESGAPDRFTGSGSGADFTLTISSVQAEDLAIYYCQNNYNYPFTFGSGTKLEIK

Numbering of substitutions follows the chain as printed.

The record followed here is patent publication US11834499 (University of California, dated 2023).

The first experiment deals with T2, human Claudin-18.2 (CLDN18.2) (human).
T2 construct: On cells: fused to GFP in engineered HEK293T cells (clone C12), endogenous in HUPT4 and SNU601 cells; also called human CLDN18.2
Description: flow cytometry; HUPT4 over M202 [Cont.]. Background: A flow cytometer gives signals particle by particle.
Description: (§1) The samples were then measured by Intellicyt® iQue Advanced Flow Cytometry Platform.
B1: the ratio native came out at 79.9.

For the molecule B2, the ratio native stood at 88.8.

Turning to B3, the ratio native was 93.4.

As for B4, the ratio native was determined as 54.1.

As for B5, the ratio native is 57.9.

Turning to B6, the ratio native was determined as 94.1.

Another experiment has as its target T2, human Claudin-18.2 (CLDN18.2). Description: flow cytometry; HEK293T CLDN18.2 over HEK293T parental [Cont.].
Description: as §1
Turning to B1, the “ratio OE” value came out at 435.

Take B2: the “ratio OE” value was found to be 456.

As for B3, the “ratio OE” value came to 453.

Take B4: the “ratio OE” value is 274.

For B5, the “ratio OE” value was found to be 229.

As for B6, the “ratio OE” value was found to be 449.

For a further experiment, the target named is T1, mouse CLDN18.2. As to the kind of experiment: FACS dose curve, AF647-labelled IgG on HEK293T mouse CLDN18.2 MP cells.
On to B7, for which the binding result is reported as “no binding (tested: 0.32 nM to 1000 nM)”.

Take B8: the binding result was “no binding (tested: 0.32 nM to 1000 nM)”.

B9: the binding result is on record as “no binding (tested: 0.32 nM to 1000 nM)”.

As to B10, the binding result is “no binding (tested: 0.32 nM to 1000 nM)”.

Regarding B11, the binding result is on record as “no binding (tested: 0.32 nM to 1000 nM)”.
